Legend:
[1] = Porphyrin binding titration to determine KD (apo-PS1 titrated into (CF3)4PZn, absorbance at 423 nm); settings: water-insoluble porphyrin solubilized with 1% w/v octylglucopyranoside detergent; 100 mM NaCl, 50 mM NaPi, pH 7.5; read-out: dissociation constant of binding, KD
Protocol: (§1) FIGS. 3A-3D. Biophysical characterization of apo- and holo-PS1. FIG. 3A: Electronic absorption and emission spectra of (CF3)4PZn/PS1 holo-protein and (CF3)4PZn in toluene solvent. […] FIG. 3B: Determination of KD by apo-PS1 titration into a buffer solution (100 mM NaCl, 50 mM NaPi, pH 7.5) of (CF3)4PZn with 1% w/v octyl-b-D-glucopyranoside. […] FIG. 3C: Circular dichroism (CD) spectra of apo- and holo-PS1 in 50 mM NaPi, 100 mM NaCl, pH 7.5 as a function of temperature. The transitions appear reversible based on the fact that the spectra are identical after cooling to room temperature. Units are in molar residue ellipticity. […] FIG. 3D: Pump-probe transient absorption spectra of (CF3)4PZn bound in the interior of holo-PS1 at 21° C. and 100° C. […] Inset exemplifies identical transient dynamics (primarily intersystem crossing from S1 to T1) at ΔAbs.=482 nm (scaled). […]
2 μM of (CF3)4PZn was solubilized in a 1 mL solution of 50 mM NaPi, 100 mM NaCl, pH 7.5 buffer by inclusion of 1% w/v octyl-b-D-glucopyranoside. 2 μL of a 102 uM stock of apo-PS1 (0.2 μM aliquots) was titrated into the 1 mL solution containing the porphyrin, and an electronic absorption spectrum was measured until >2.5 equivalents of protein were added. Absorbance changes at 423 nm, due to His-Zn coordination-induced spectral shifts of the porphyrin, were fit to a single-site, protein-ligand binding model.

[2] = Hydrogen-deuterium exchange measurements by 2D 15N HSQC NMR; assay type: physicochemical
Protocol: FIGS. 5A-5F. Apo- and holo-PS1 share similar folded cores and differ in the binding region. FIG. 5A: 2D ^1H-^15N HSQC spectra acquired for apo- and holo-PS1. Experimental conditions: 0.78 mM at 298K, 50 mM NaPi, 100 mM NaCl, pH 7.5, in 5% D2O. Resonance assignments are indicated using the one-letter amino acid code. Signals arising from side chains (Asn HD2/ND2, Gln HE2/NE2, Arg HE/NE and Trp HE1/NE1) are also labeled. The residues belonging to the binding region and folded core are color-coded as in (FIG. 5B). Non-helical residues are labeled in cyan font face. […] A dashed box surrounds 90% of the backbone resonances of apo-PS1 and is also placed at the same position in the holo-PS1 spectrum. Arrows point to resonances of residues within the binding region that change dramatically upon binding of the cofactor. FIG. 5B: Solution NMR structures of apo-PS1 and holo-PS1. […] FIG. 5C: Hydrogen-deuterium exchange protection factors (PF) measured for apo- and holo-PS1, mapped onto the centroid structure of holo-PS1. Backbone amide nitrogens of residues with determined PFs are shown as spheres. […]
For the measurements of H/D exchange rates, a series of 2D ^15N HSQC spectra were obtained on a 900 MHz Bruker Avance II spectrometer. The first spectra were recorded 9 minutes after the dilution of 100 μl of a high concentration sample in H2O (2 mM for apo and 1.2 mM for holo) into 200 μl D2O buffer. […]

[3] = Pump-probe transient absorption spectroscopy of bound (CF3)4PZn at 21 and 100° C.; assay type: physicochemical; settings: non-natural porphyrin (CF3)4PZn
Protocol: as §1
Ultrafast transient absorption spectra were obtained using standard pump-probe methods^9 with a time resolution of approximately 200 fs. Elevated temperature experiments were performed in a custom-made temperature block of anodized aluminum, the temperature of which was controlled by heating rods and monitored by a pair of thermocouples wired to a PID through a solid-state relay. […]

[4] = Porphyrin binding to apo-protein, electronic absorption spectra ((CF3)4PFe loading)
Protocol: FIG. 9. Scaled absorption spectra of (CF3)4PM/PS1 complexes, M=Zn^2+, Fe^2+. Loading of (CF3)4PFe into PS1 was ˜40-50%, likely due to the extreme insolubility of the porphyrin. The featured bands at 550-650 nm indicate that (CF3)4PFe is in a homogenous environment in the ferrous state. […] The peak at 423 nm is also indicative of a homogenous binding environment. The absorption spectra were scaled to reflect the relative extinction coefficients of the porphyrins. Buffer=50 mM NaPi, 100 mM NaCl, pH 7.5.
A 2-fold excess of the cofactor (CF3)4PZn was added from a 4 mM DMSO stock solution to a 50 mM NaPi, 100 mM NaCl, pH 7.5 buffer with apo-protein (Note that final DMSO concentrations were kept <1%.). Buffer solution of apo-PS1 protein was heated for 5 minutes at 50° C., (CF3)4PZn was then added from the DMSO stock solution, the resultant mixture was vortexed for 5 seconds, and placed back in the heat block at 50° C. for 15 minutes, with vortexing every 3 minutes. The protein/cofactor solution was then spun at 14000×g in a Amicon Ultra-0.5 mL centrifuge filter for 10 min, three times, replacing the buffer to 0.5 mL after each 10 min spin. Finally, the protein solution was spun for 4 min at 12000×g in an Amicon ultrafree-MC GV filter (UFC30GV0S). The holo-PS1 sample was then used for spectroscopic experiments immediately afterward, and diluted to an appropriate concentration if necessary. […]

Kd [1]: 45 nM
binding of (CF3)4PFe (ferrous iron-derivative of the porphyrin) [4]: binds
loading of (CF3)4PFe ([4]; 50 mM NaPi, 100 mM NaCl, pH 7.5): 40-50%
B1: PS1: de novo designed porphyrin-binding four-helix bundle protein; designed sequence SEQ ID NO:1, expressed His-tag-cleaved sequence SEQ ID NO:2 (protein)
chain: SEFEKLRQTGDELVQAFQRLREIFDKGDDDSLEQVLEEIEELIQKHRQLFDNRQEAADTEAAKQGDQWVQLFQRFREAIDKGDKDSLEQLLEELEQALQKIRELAEKKN
protection of the backbone surrounding the apolar core from solvent H/D exchange [2]: highly protected from exchange
temperature up to which the porphyrin is bound [3]: up to 100 °C

— patent US20200234789A1, “DESIGNED PROTEINS FOR LIGAND BINDING” (THE REGENTS OF THE UNIVERSITY OF CALIFORNIA, priority 2017, published 2020)
